Measured values from the Human Domainome abundance scans (Beltran et al. 2025).
± gives the uncertainty stated by the source.

B1: Telomeric repeat-binding factor 2, residues 489 to 542; numbered along this chain, Q15554 (parent)
chain: KQKWTVEESEWVKAGVQKYGEGNWAAISKNYPFVNRTAVMIKDRWRTMKRLGMN

Variants of: B1
Test: abundance fitness (aPCA) (normalised: wild type 0, dead -1); higher = more abundant; growth selection in yeast, the domain comes from the species named
Conditions: Homo sapiens

Variant	abundance fitness
E8T	-0.485 ± 0.15
E8Y	0.233 ± 0.13
E8Q	-0.566 ± 0.19
E8S	-0.65 ± 0.064
E8R	-0.638 ± 0.091
E8M	-0.238 ± 0.12
E8I	-0.339 ± 0.099
E8G	-0.394 ± 0.099
E8K	-1 ± 0.36
E8P	-0.598 ± 0.12
E8L	-0.19 ± 0.062
E8N	-0.707 ± 0.37
E8A	-0.381 ± 0.072
E8W	-0.153 ± 0.048
E8V	-0.596 ± 0.12
G15D	-0.772 ± 0.3
G15V	-0.587 ± 0.091
G15E	-0.758 ± 0.21
G15F	-0.888 ± 0.34
G15L	-0.503 ± 0.082
G15M	-0.934 ± 0.38
G15N	-0.485 ± 0.1
G15A	-0.761 ± 0.053
G15H	-0.946 ± 0.42

Variant	abundance fitness
G15K	-0.657 ± 0.23
G15I	0.246 ± 0.38
G15W	-0.284 ± 0.14
G15C	-0.652 ± 0.17
E10C	-0.277 ± 0.065
E10H	0.044 ± 0.16
E10V	-0.359 ± 0.12
E10T	-0.102 ± 0.097
E10Q	-0.177 ± 0.13
E10K	-0.314 ± 0.095
E10W	-0.414 ± 0.11
E10D	-0.486 ± 0.25
E10F	-0.255 ± 0.14
E10G	-0.38 ± 0.095
E10M	-0.055 ± 0.13
E10S	-0.311 ± 0.12
E10I	-0.529 ± 0.17
T5E	-0.272 ± 0.16
T5L	-0.75 ± 0.13
T5Q	-0.502 ± 0.2
T5W	-0.631 ± 0.26
T5D	-0.38 ± 0.14
T5M	-0.21 ± 0.088
T5R	-0.557 ± 0.051

Variant	abundance fitness
T5F	-0.826 ± 0.11
T5I	-0.669 ± 0.31
T5K	-0.161 ± 0.17
T5S	-0.105 ± 0.056
T5P	-0.398 ± 0.19
T5V	-0.789 ± 0.11
T5G	-0.421 ± 0.14
V12M	-0.132 ± 0.23
V12H	-1.02 ± 0.24
V12Q	-0.895 ± 0.17
V12E	-0.262 ± 0.089
V12Y	-0.855 ± 0.34
V12W	-0.744 ± 0.13
V12A	-0.423 ± 0.075
V12S	-0.356 ± 0.054
V12T	-0.144 ± 0.15
V12C	-0.362 ± 0.17
V12G	-0.495 ± 0.063
V12F	-0.75 ± 0.25
V12R	-0.682 ± 0.14
V12K	-0.626 ± 0.25
V12P	-0.325 ± 0.2
V12N	-0.844 ± 0.32
A14F	-0.4 ± 0.21

Variant	abundance fitness
A14N	-0.276 ± 0.07
A14E	-0.116 ± 0.14
A14S	0.084 ± 0.086
A14Y	-0.217 ± 0.29
A14R	-0.002 ± 0.09
A14L	-0.051 ± 0.061
A14P	-0.306 ± 0.24
A14D	-0.041 ± 0.087
A14Q	-0.189 ± 0.17
A14G	-0.236 ± 0.053
A14W	-0.382 ± 0.18
A14H	-0.209 ± 0.24
K1M	-0.501 ± 0.15
K1D	-0.17 ± 0.16
K1E	-0.323 ± 0.2
K1R	-0.631 ± 0.16
K1C	-0.578 ± 0.31
K1G	-0.585 ± 0.23
G20E	-0.954 ± 0.37
G20A	-1.11 ± 0.29
G20W	-0.541 ± 0.089
G20S	-0.488 ± 0.1
G20I	-0.621 ± 0.45
G20H	-0.126 ± 0.16

Variant	abundance fitness
G20L	-1.06 ± 0.24
G20V	-0.918 ± 0.25
G20P	-0.813 ± 0.37
G20Y	-0.781 ± 0.28
G20Q	-0.587 ± 0.33
G20T	-0.99 ± 0.17
V6F	0.031 ± 0.15
V6I	0.005 ± 0.046
V6D	0.059 ± 0.12
V6M	-0.768 ± 0.29
V6R	0.03 ± 0.054
V6C	0.07 ± 0.11
V6S	-0.024 ± 0.089
V6N	-0.433 ± 0.23
V6H	0.298 ± 0.11
V6E	-0.007 ± 0.094
V6Y	0.192 ± 0.082
V6A	0.291 ± 0.085
V6T	-0.115 ± 0.16
V6W	-0.063 ± 0.076
V6G	-0.253 ± 0.061
V6K	0.171 ± 0.048
W4I	-0.131 ± 0.1
W4L	-0.41 ± 0.09

Variant	abundance fitness
W4K	-0.426 ± 0.38
W4Y	-0.325 ± 0.059
W4S	-0.248 ± 0.098
W4Q	-0.266 ± 0.17
W4M	-0.27 ± 0.21
W4D	-0.171 ± 0.33
W4G	-0.637 ± 0.15
W4T	-0.258 ± 0.3
W4P	-0.216 ± 0.28
W4A	-0.804 ± 0.19
W4H	-0.391 ± 0.16
W4F	-0.023 ± 0.12
W4R	-0.747 ± 0.19
W4C	-0.599 ± 0.23
W4E	-0.126 ± 0.22
W4V	-0.61 ± 0.23
Q2W	-0.34 ± 0.14
Q2G	-0.163 ± 0.068
Q2R	-0.202 ± 0.082
Q2E	0.254 ± 0.36
Q2A	-0.138 ± 0.1
Q2C	-0.248 ± 0.16
Q2L	-0.017 ± 0.067
Q2H	0.518 ± 0.13

Variant	abundance fitness
Q2V	0.271 ± 0.093
Q2M	-0.191 ± 0.29
Q2S	-0.175 ± 0.14
Q2F	0.725 ± 0.2
Q2D	0.184 ± 0.07
Q2N	0.333 ± 0.37
Q2P	-0.981 ± 0.28
Q2I	0.29 ± 0.29
W11F	-0.394 ± 0.13
W11Y	-0.191 ± 0.071
W11P	-0.327 ± 0.19
W11S	-0.321 ± 0.06
W11H	-0.294 ± 0.16
W11T	-0.12 ± 0.11
W11I	-0.241 ± 0.18
W11M	-0.111 ± 0.11
W11N	-0.391 ± 0.2
W11A	-0.352 ± 0.095
W11G	-0.193 ± 0.057
W11R	-0.553 ± 0.083
W11D	-0.183 ± 0.13
W11V	-0.47 ± 0.048
E7Q	-0.075 ± 0.12
E7M	-0.015 ± 0.11

Variant	abundance fitness
E7D	-0.141 ± 0.09
E7S	-0.67 ± 0.13
E7W	-0.443 ± 0.078
E7G	-0.834 ± 0.11
E7C	-0.607 ± 0.2
E7H	-0.377 ± 0.28
E7R	-0.221 ± 0.08
E7V	-0.459 ± 0.083
E7N	-0.721 ± 0.33
E7T	-0.196 ± 0.091
E7Y	-0.329 ± 0.07
E7P	-0.401 ± 0.055
E7L	-0.258 ± 0.068
E7F	-0.47 ± 0.046
E7I	-0.427 ± 0.2
E7A	-0.242 ± 0.063
Q17W	-0.376 ± 0.1
Q17K	-0.143 ± 0.11
Q17L	-0.014 ± 0.053
Q17D	-0.273 ± 0.16
Q17G	-0.108 ± 0.074
Q17S	-0.087 ± 0.079
Q17H	-0.328 ± 0.29
Q17P	-0.63 ± 0.26

Variant	abundance fitness
Q17M	-0.531 ± 0.21
Q17A	-0.031 ± 0.088
Q17F	-0.469 ± 0.14
Q17C	0.016 ± 0.12
Q17V	-0.244 ± 0.085
Q17I	-0.066 ± 0.15
Q17N	-0.295 ± 0.42
Q17T	0.003 ± 0.1
Q17Y	-0.136 ± 0.13
Q17E	-0.441 ± 0.067
Q17R	-0.2 ± 0.082
N23L	-0.56 ± 0.14
N23E	-0.801 ± 0.36
N23C	-0.417 ± 0.36
N23M	-0.385 ± 0.39
N23Q	0.057 ± 0.41
N23P	-0.773 ± 0.33
N23S	-0.238 ± 0.086
N23D	-0.527 ± 0.26
N23K	0.133 ± 0.11
N23G	-0.61 ± 0.14
N23A	-0.298 ± 0.11
N23T	-0.478 ± 0.18
N23I	-0.354 ± 0.23

Variant	abundance fitness
G22K	-0.418 ± 0.16
G22Q	-0.427 ± 0.09
G22L	-0.761 ± 0.14
G22V	-0.489 ± 0.07
G22F	-0.338 ± 0.19
G22D	-0.051 ± 0.072
G22W	-0.695 ± 0.17
G22T	-0.467 ± 0.35
G22Y	-0.204 ± 0.068
G22R	-0.261 ± 0.1
G22E	-0.461 ± 0.17
G22I	-0.595 ± 0.29
G22M	-0.788 ± 0.15
G22A	-0.286 ± 0.1
G22P	-0.846 ± 0.25
Y19T	-0.395 ± 0.1
Y19H	-0.28 ± 0.079
Y19I	-0.051 ± 0.34
Y19L	-0.51 ± 0.088
Y19E	-0.321 ± 0.16
Y19R	-0.162 ± 0.093
Y19G	-0.912 ± 0.22
Y19N	-0.242 ± 0.34
Y19P	-0.083 ± 0.16

Variant	abundance fitness
Y19K	-0.004 ± 0.13
Y19M	-0.464 ± 0.26
Y19S	-0.375 ± 0.071
Y19W	-0.557 ± 0.085
Y19V	-1.04 ± 0.29
Y19Q	-0.225 ± 0.099
Y19C	-0.528 ± 0.18
Y19A	-0.421 ± 0.066
K18R	0.076 ± 0.067
K18C	-0.403 ± 0.34
K18G	-0.616 ± 0.14
K18E	-0.233 ± 0.11
K18T	-0.035 ± 0.12
K18F	-0.477 ± 0.46
K18L	-0.342 ± 0.07
K18W	-0.956 ± 0.21
K18Q	-0.07 ± 0.11
K18S	-0.736 ± 0.27
K18A	-0.368 ± 0.13
K18N	-0.435 ± 0.18
K18M	-0.254 ± 0.12
K18P	-0.686 ± 0.11
S9I	-0.021 ± 0.091
S9C	-0.343 ± 0.11

Variant	abundance fitness
S9R	-0.671 ± 0.096
S9M	0.39 ± 0.11
S9T	-0.15 ± 0.13
S9A	-0.219 ± 0.078
S9Y	-0.481 ± 0.15
S9V	-0.483 ± 0.11
S9G	-0.354 ± 0.058
S9N	0.107 ± 0.052
S9W	-0.335 ± 0.082
S9L	-0.31 ± 0.091
V16M	-0.664 ± 0.05
V16D	-0.459 ± 0.091
V16L	-0.696 ± 0.19
V16W	-0.765 ± 0.094
V16A	-0.505 ± 0.1
V16T	-0.157 ± 0.17
V16I	-0.446 ± 0.2
V16Q	-0.398 ± 0.13
V16Y	-0.885 ± 0.25
V16H	-0.071 ± 0.28
V16F	-0.936 ± 0.44
V16K	-0.798 ± 0.43
V16R	-0.323 ± 0.074
V16G	-0.504 ± 0.062

Variant	abundance fitness
V16S	-0.563 ± 0.085
V16E	-0.62 ± 0.092
K3I	-0.278 ± 0.33
K3G	-0.268 ± 0.056
K3N	-0.499 ± 0.45
K3T	-0.052 ± 0.048
K3W	-0.33 ± 0.093
K3V	-0.205 ± 0.094
K3A	-0.098 ± 0.044
K3C	-0.394 ± 0.14
K3Q	-0.245 ± 0.16
K3H	-0.519 ± 0.2
K3P	-0.01 ± 0.058
K3F	-0.258 ± 0.26
K3E	-0.175 ± 0.17
K3M	0.339 ± 0.11
K13V	-0.021 ± 0.048
K13Y	-0.072 ± 0.11
K13R	0.017 ± 0.066
K13E	-0.25 ± 0.18
K13M	-0.013 ± 0.069
K13C	-0.534 ± 0.16
K13I	-0.163 ± 0.16
K13H	-0.13 ± 0.14

Variant	abundance fitness
K13A	-0.242 ± 0.1
K13F	-0.24 ± 0.22
K13S	-0.128 ± 0.049
K13Q	0.076 ± 0.084
K13L	-0.112 ± 0.087
K13G	-0.184 ± 0.05
K13N	-0.232 ± 0.057
K13D	-0.332 ± 0.21
E21R	-0.704 ± 0.12
E21F	-0.1 ± 0.12
E21K	-0.44 ± 0.075
E21M	-0.829 ± 0.26
E21G	-0.389 ± 0.084
E21S	-0.323 ± 0.085
E21W	-0.502 ± 0.083
E21T	-0.478 ± 0.064
E21Q	-0.634 ± 0.12
E21A	-0.314 ± 0.05
E21Y	-0.123 ± 0.14
E21D	-0.26 ± 0.14
E21C	-0.432 ± 0.12
E21H	-0.598 ± 0.32
